From the supplement of paper PMC12764529
± gives the half width of the 95% confidence interval.

assay: folding stability dG unfold from chymotrypsin proteolysis; higher = more stable
Method in brief: (§1)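 Digests were run with trypsin and chymotrypsin at 11 concentrations in threefold dilutions, plus a no-protease condition, on designed mini-proteins in a PA-tagged cDNA display construct. The mini-proteins were under 80 residues, had no cysteine, and were kept only when AlphaFold2 dimer inter-PAE was above 15. After sequencing, Bayesian fitting of the counts gave K50, from which unfolding free energy was derived against a sequence-predicted unfolded-state K50 and a shared folded-state K50, per protease or combined.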

Sequence	folding stability dG unfold [kcal/mol]
SAGGSAGGSAKKKVEIKIEIEEVTNKDGKKYIKIKIEVKVSEEVKKELADALKKAGFKVEPSAGGSAGGSAG [r3_157_TrROS_Hall]	2.43 ± 0.093
SAGGMLTLEEIKKAKPGEKLEIEVDGKIYLVEIKKNENGELTLTVKKVDKETGEIVEEKTISLEELLSAGGS [r16_763_TrROS_Hall]	3.78 ± 0.077
SAGGSAGGSAGMTYRVRIENADGEVVTIEISADELREKGLTLEELLPPNARIVEVEEVEPSAGGSAGGSAGG [r11_829_TrROS_Hall]	3.61 ± 0.063
SAGGSAGGSAGSWELSYRFPGVQIEVTYSPEWGFITEIKVQPLPPPPPPSPEDAKEMKEKSAGGSAGGSAGG [r11_320_TrROS]	2.56 ± 0.081
SAGGMKLEFEAEITVPLPVPTPEGGLEFVPITEPIRIEAEHPEELEIALKEAELETIERALKELGIESAGGS [r16_339_TrMRF]	-0.723 ± 0.16
GMMPEVKEYEVVVEVSLSDPSFASMTPEELAERAVAEVAAKPDFDPVEVEILSVKELPDGTYVVKVRITVRS [r1_484_JUSTAS]	3.15 ± 0.12
SAGGSAGGSAGMEYHLVVVRPPNGEELVLLTDDDPELARRAARELFPGAEVRVEPVVLPESAGGSAGGSAGG [r11_850_TrMRF]	0.0832 ± 0.069
SAGGSAGGSADGNKPPEIKINLEVERHPNGMVEITATLHWPGGKEFPVRIMYNPDKIFIEISAGGSAGGSAG [r3_259_TrROS]	3.4 ± 0.16
SAGGGMESRTLTLPKEEIEKVKEEIKKASNLDIKVTTKKLPNGEYELTITFSNPEDVEKFEKKLGIESAGGS [r16_172_JUSTAS]	3.05 ± 0.059
SAGGSAGGSMKKLKITFPPGMTEEELKKKIEELAKKLNLEVVKIKSIEYDKENKEVTITVEIKSAGGSAGGS [r12_131_TrROS_Hall]	3.77 ± 0.059
SAGSRILERLREEGLTITKVTSVEKGPGYERIEVETALPDGTTGKVKVTRDPADPDKIEVELEFTPAEVSAG [r5_683_JUSTAS]	1.71 ± 0.023
PISAEEAVDYAKHLAERLLKENPPGQEEVEIEFQSPNGWTVKIEIDPNNRKIDVEVYPRNGEPIAKAKIKVS [r1_370_TrROS]	0.378 ± 0.33
SAMKVYKAKVTIVDEEGNLLDEIELEFETEEELKEKVLEELGVSEEEIVEIELSPEVSEEEFEKKLKLESAG [r14_852_JUSTAS]	0.776 ± 0.15
SAGGSAGGEKGYKLVEITIPVTVYHGNKPYTIPIPIKVKSPEEVEKLKKFIENTSYDPTSGKFSSAGGSAGG [r6_197_TrMRF]	1.28 ± 0.24
SAGGSAGGSAGGMPVLVNIELPIPGTNETLTLEVEAEGPGGEEVEKEAQETAEKVLEESSAGGSAGGSAGGS [r10_863_JUSTAS]	1.79 ± 0.068
SAGGSAGGEFTVTVTIEKDEEKGFIRIPISVSLPSSAFVPKTVEFLEFAKTLKENLPELEVDASSAGGSAGG [r6_102_TrMRF]	0.65 ± 0.075
SIYIKIPIDEIKPEWNKNGMITLEIKYPNGKTIKFEFPPGFQIDNIEVIKPGWIMFEFEIVPPADPEDAKSA [r9_501_TrROS]	3.06 ± 0.082
SAGRIYVDPNMVVIEIKYPDKPMPIIIPFKDPEDQEMAKELVKKIMRYLRNEGLPVEVEVEVFPPGQPVSAG [r5_823_TrROS]	2.41 ± 0.026
SAGGSAGGSDTPTINIPPGMGNPEQAIEQLKEIREHFPPGKKISISAPGGWKPELKEAGLITVSAGGSAGGS [r12_992_TrROS]	1.23 ± 0.08
SAGGSAGGNPDLVITFPDGVKITVHPDGTITITRFIPGRDVPVGTRTITVPAPDGIPLEELLKYSAGGSAGG [r6_572_TrMRF]	1.2 ± 0.059
SAGMVIPREEALANYSEEEIKELAKKIAEELGYKPKKIEIKKDPSPNSSITVTITPPDGSTIPLVLELPSAG [r5_745_JUSTAS]	1.08 ± 0.037

Sequence	folding stability dG unfold [kcal/mol]
SAGGSAGGSAGGMYYAIITNKNGKKKIIKFKSLEEMEEAAKKNNIKIEIIPKEELEKLLSAGGSAGGSAGGS [r10_66_TrROS_Hall]	3.64 ± 0.043
SAMIVVTLTINPITGKPILIFDPGVGVYAIDPETGEPHEATVDGDTLTLNFGNRPILLTPEAVIPPEELSAG [r14_208_TrMRF]	1.41 ± 0.079
SAGGSAGGSSVEYTFLSKNPEEAKKKFEEKIKEIEEKGEGKIEKAEFTIVSPDNPEYLKLISSSAGGSAGGS [r12_551_JUSTAS]	0.136 ± 0.26
SAGGSAGGSTVEEELLEKAAAAHPPGTTLTVDVVIVDPNNPVPIGTRTVTITVNADGSYTVVDSAGGSAGGS [r20_151_JUSTAS]	2.65 ± 0.054
SAGGGSATLVGIFPEKGYLVVLTITTDGDDFSIGELKVTFEPLDDDSVKATFYTPSGQKHDAIGLPVASAGG [r13_515_TrMRF]	1.42 ± 0.1
SAGGSAGGSKEKYIKIVVEVNGEKKVIVVKAKTIEELEELAKKLNLEVEIEKREDGYLVIRLKSAGGSAGGS [r12_810_TrROS_Hall]	3.36 ± 0.058
SAGGLKPGDWVIIMTIEFPFPFPDDDGKPQEWRIKITIWVPVEYDPPDGKLEIDNIFINIEIVPPDQISAGG [r13_312_TrROS]	4.55 ± 0.1
SEEEIVEEPPPETRTLTLELVDPETGELVATITVSPDGTVTLTVRTPDGEEKTITVPEGMSLEEALAAALSA [r9_346_TrROS_Hall]	4.39 ± 0.24
SAGSSLRLELDLEVTLYAPVVSVRPDGSLSLVPGSTRPIPVRLRVTFELTLDPDNPLNVSINVDIEADFSAG [r14_274_TrMRF]	5.9 ± 0.081
MTPTFTVTELPPDLLRVEYTDPVTGKRATFTLPVSPVGDGVRLSAEVDAEGLPEEVAAAIRDAALAALAAAS [r1_403_JUSTAS]	2.3 ± 0.023
SAGGSAGGSAGSIVTIPIAGLSPEEAEALIKEAIAAGEDKPIILVDEDGTPTVVPASELKSAGGSAGGSAGG [r11_541_JUSTAS]	-0.408 ± 0.035
SAGGSAGGSAGGDNVLILVKLPKGYRVYSINDPEVLKAVTLKELKDELEKKTGYPVEVLPSAGGSAGGSAGG [r7_259_TrMRF]	1.66 ± 0.18
SAGGSAGGSAGKIKVEKDKKTNEYRVTIELFDKNGKPVKKIEITVKKEDLPKIKELLKKLSAGGSAGGSAGG [r11_77_TrROS_Hall]	3.6 ± 0.1
SAGDNNKKPKYVYIPITINVPLPPGQTHEEAVDEVRLIMEELFPPGFKISEVKVHPEYNTVTVWIQIRSAGG [r19_81_TrROS]	2.16 ± 0.044
SKGKKVLVIPATLPEAEEIAKALGLPPSLFPSSKKLVDALKEAFPENVVVVVAPAKPVTEEELKALAEGKSA [r9_74_TrMRF]	0.93 ± 0.039
SAGMKKLPSEEERKKAEELAKKGELVIIIRLKNGEKLVIVVKSEEELKELLKKLPLEIEEIYVFKVKKKSAG [r5_481_TrROS_Hall]	2.26 ± 0.049
SAGGSADPIRTISGPVPLEEIEANIKKLLKENPNLDAAVFYIPEIGSKITIYFKNGKIVKIEIDLSSAGGSA [r15_166_TrMRF]	4.79 ± 0.13
SGFTVEVEVEYYPETGVLEVTVTTDGSSEQLIRDVADFIKEAGLDFVIESVEVEESGEVTTITLKLYVPPSA [r9_164_TrMRF]	4 ± 0.12
SNKIDKRIVSVTFYESLPNGSVKVNNLVFISTSDGKVRLVNAGEITIPLGDKTLSINIGEASSNVKLGKISA [r9_1113_TrMRF]	1.52 ± 0.032
SAGGTLTLLVEVDGLLVRVTAEVRLVYDPETDELTLEVRVRVEVRPLPAPPPPLVVVRDADGRLRLLSAGGS [r8_46_TrROS_Hall]	2.71 ± 0.042
SAGGSAGGSDRYLAVVFVRRADDPTPEVRTFTGIRTLADVERAVADALPADVAEVRIVVFPVRSAGGSAGGS [r20_29_TrMRF]	1.82 ± 0.12

assay: folding stability dG unfold (combined trypsin and chymotrypsin); higher = more stable
Method in brief: as §1

Sequence	folding stability dG unfold [kcal/mol]
SAGGSAGGSAKKKVEIKIEIEEVTNKDGKKYIKIKIEVKVSEEVKKELADALKKAGFKVEPSAGGSAGGSAG [r3_157_TrROS_Hall]	2.17 ± 0.16
SAGGMLTLEEIKKAKPGEKLEIEVDGKIYLVEIKKNENGELTLTVKKVDKETGEIVEEKTISLEELLSAGGS [r16_763_TrROS_Hall]	3.53 ± 0.07
SAGGSAGGSAGMTYRVRIENADGEVVTIEISADELREKGLTLEELLPPNARIVEVEEVEPSAGGSAGGSAGG [r11_829_TrROS_Hall]	3.63 ± 0.09
SAGGSAGGSAGSWELSYRFPGVQIEVTYSPEWGFITEIKVQPLPPPPPPSPEDAKEMKEKSAGGSAGGSAGG [r11_320_TrROS]	2.02 ± 0.12
SAGGMKLEFEAEITVPLPVPTPEGGLEFVPITEPIRIEAEHPEELEIALKEAELETIERALKELGIESAGGS [r16_339_TrMRF]	-0.845 ± 0.59
GMMPEVKEYEVVVEVSLSDPSFASMTPEELAERAVAEVAAKPDFDPVEVEILSVKELPDGTYVVKVRITVRS [r1_484_JUSTAS]	3.91 ± 0.14
SAGGSAGGSAGMEYHLVVVRPPNGEELVLLTDDDPELARRAARELFPGAEVRVEPVVLPESAGGSAGGSAGG [r11_850_TrMRF]	0.099 ± 0.077
SAGGSAGGSADGNKPPEIKINLEVERHPNGMVEITATLHWPGGKEFPVRIMYNPDKIFIEISAGGSAGGSAG [r3_259_TrROS]	3.19 ± 0.14
SAGGGMESRTLTLPKEEIEKVKEEIKKASNLDIKVTTKKLPNGEYELTITFSNPEDVEKFEKKLGIESAGGS [r16_172_JUSTAS]	2.71 ± 0.15
SAGGSAGGSMKKLKITFPPGMTEEELKKKIEELAKKLNLEVVKIKSIEYDKENKEVTITVEIKSAGGSAGGS [r12_131_TrROS_Hall]	3.87 ± 0.088
SAGSRILERLREEGLTITKVTSVEKGPGYERIEVETALPDGTTGKVKVTRDPADPDKIEVELEFTPAEVSAG [r5_683_JUSTAS]	1.38 ± 0.052
PISAEEAVDYAKHLAERLLKENPPGQEEVEIEFQSPNGWTVKIEIDPNNRKIDVEVYPRNGEPIAKAKIKVS [r1_370_TrROS]	0.205 ± 0.35
SAMKVYKAKVTIVDEEGNLLDEIELEFETEEELKEKVLEELGVSEEEIVEIELSPEVSEEEFEKKLKLESAG [r14_852_JUSTAS]	0.347 ± 0.14
SAGGSAGGEKGYKLVEITIPVTVYHGNKPYTIPIPIKVKSPEEVEKLKKFIENTSYDPTSGKFSSAGGSAGG [r6_197_TrMRF]	1.02 ± 0.13
SAGGSAGGSAGGMPVLVNIELPIPGTNETLTLEVEAEGPGGEEVEKEAQETAEKVLEESSAGGSAGGSAGGS [r10_863_JUSTAS]	1.72 ± 0.11
SAGGSAGGEFTVTVTIEKDEEKGFIRIPISVSLPSSAFVPKTVEFLEFAKTLKENLPELEVDASSAGGSAGG [r6_102_TrMRF]	0.679 ± 0.038
SIYIKIPIDEIKPEWNKNGMITLEIKYPNGKTIKFEFPPGFQIDNIEVIKPGWIMFEFEIVPPADPEDAKSA [r9_501_TrROS]	2.2 ± 0.16
SAGRIYVDPNMVVIEIKYPDKPMPIIIPFKDPEDQEMAKELVKKIMRYLRNEGLPVEVEVEVFPPGQPVSAG [r5_823_TrROS]	2.11 ± 0.11
SAGGSAGGSDTPTINIPPGMGNPEQAIEQLKEIREHFPPGKKISISAPGGWKPELKEAGLITVSAGGSAGGS [r12_992_TrROS]	0.513 ± 0.11
SAGGSAGGNPDLVITFPDGVKITVHPDGTITITRFIPGRDVPVGTRTITVPAPDGIPLEELLKYSAGGSAGG [r6_572_TrMRF]	1.13 ± 0.13
SAGMVIPREEALANYSEEEIKELAKKIAEELGYKPKKIEIKKDPSPNSSITVTITPPDGSTIPLVLELPSAG [r5_745_JUSTAS]	1.06 ± 0.047
